Reference: publication PMC7401801

Target: CRM1 (UniProt O14980)
Assay: GFP IP of CRM1-EGFP, Flag blot
Settings: reference: Flag-TFEB wild type; sites S142

For “TFEB (from UniProt P19484) Flag-TFEB(S142A)”, the “binding against the reference” value was “weaker”.
